Measurements from patent US20240209070A1, “COTH3 BINDING AGENTS AND USES THEREOF” (priority 2021, published 2024).

Legend:
[1] = target: Rhizopus delemar (Rhizopus delemar); test: flow cytometry on fixed Rhizopus delemar spores; blank 'Hu 2nd Only' median 565.83, mean 592.76
[2] = target: Lichtheimia corymbifera (Lichtheimia corymbifera); test: flow cytometry on fixed Lichtheimia corymbifera spores; blank 'Hu 2nd Only' median 461.38, mean 517.80
[3] = target: Cunninghamella bertholletiae (Cunninghamella bertholletiae); test: flow cytometry on fixed Cunninghamella bertholletiae spores; blank 'Hu 2nd Only' median 241.78, mean 250.81
[4] = target: Rhizomucor (Rhizomucor (species not given)); test: flow cytometry on fixed Rhizomucor spores; blank 'Hu 2nd Only' median 257.20, mean 272.52
[5] = target: Mucor circinelloides (Mucor circinelloides); test: flow cytometry on fixed Mucor circinelloides spores; blank 'Hu 2nd Only' median 990.21, mean 1062.19

Sequence of Rhizopus delemar (Rhizopus delemar) (I1CFE1 18-579): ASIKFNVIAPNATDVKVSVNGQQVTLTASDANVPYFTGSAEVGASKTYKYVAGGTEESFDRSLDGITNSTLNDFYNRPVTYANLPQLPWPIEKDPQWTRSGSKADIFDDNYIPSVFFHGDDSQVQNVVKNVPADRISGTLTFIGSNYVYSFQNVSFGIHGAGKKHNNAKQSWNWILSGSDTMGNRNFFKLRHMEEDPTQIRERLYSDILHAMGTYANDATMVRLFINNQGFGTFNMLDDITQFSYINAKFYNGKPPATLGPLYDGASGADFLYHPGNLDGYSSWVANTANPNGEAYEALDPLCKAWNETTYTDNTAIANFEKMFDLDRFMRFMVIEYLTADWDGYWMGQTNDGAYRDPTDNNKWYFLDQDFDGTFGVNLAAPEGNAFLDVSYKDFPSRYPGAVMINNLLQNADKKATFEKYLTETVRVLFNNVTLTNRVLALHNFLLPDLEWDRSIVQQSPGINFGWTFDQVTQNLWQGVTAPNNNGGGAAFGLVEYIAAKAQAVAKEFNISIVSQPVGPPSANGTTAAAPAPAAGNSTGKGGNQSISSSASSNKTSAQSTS

**Q.** For Hu Isotype IgG (antibody), which Mean: FITC-A [1] is on record?
**A.** 1210

**Q.** What about the Median: FITC-A [1] of the same substance?
**A.** 1010

**Q.** What about the Mean: FITC-A [2] of the same substance?
**A.** 2830

**Q.** And the Median: FITC-A [2]?
**A.** 1170

**Q.** And the Mean: FITC-A [3]?
**A.** 1070

**Q.** And the Median: FITC-A [3]?
**A.** 833

**Q.** And the Mean: FITC-A [4]?
**A.** 1110

**Q.** And the Median: FITC-A [4]?
**A.** 843

**Q.** What about the Mean: FITC-A [5] of the same substance?
**A.** 2020

**Q.** And the Median: FITC-A [5]?
**A.** 1820
